B1: VTI1B (parent)
chain: NKLLLSIIILLELAILGGLVYYKF

Variants of: B1
Experiment: protein stability index of a GFP-peptide fusion (GPS, HEK-293T) (PSI 1-6); higher = more stable
Conditions: c terminus: a fixed tail appended
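Note: lentivirally expressed fusions sorted by FACS into six bins by GFP to DsRed ratio, PSI derived from sequencing read proportions per bin multiplied by bin number.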

| Variant | protein stability index |
| --- | --- |
| RKLLLSIIILLELAILGGLVYYKF [N1R] | 2.99 |
| SKLLLSIIILLELAILGGLVYYKF [N1S] | 2.63 |
| TKLLLSIIILLELAILGGLVYYKF [N1T] | 3.56 |
| VKLLLSIIILLELAILGGLVYYKF [N1V] | 2.54 |
| WKLLLSIIILLELAILGGLVYYKF [N1W] | 3.84 |
| YKLLLSIIILLELAILGGLVYYKF [N1Y] | 2.36 |
| NALLLSIIILLELAILGGLVYYKF [K2A] | 3.74 |
| NCLLLSIIILLELAILGGLVYYKF [K2C] | 2.17 |
| NDLLLSIIILLELAILGGLVYYKF [K2D] | 2.35 |
| NELLLSIIILLELAILGGLVYYKF [K2E] | 2 |
| NFLLLSIIILLELAILGGLVYYKF [K2F] | 3.52 |
| NHLLLSIIILLELAILGGLVYYKF [K2H] | 2.48 |
| NILLLSIIILLELAILGGLVYYKF [K2I] | 3.89 |
| NMLLLSIIILLELAILGGLVYYKF [K2M] | 2.6 |
| NNLLLSIIILLELAILGGLVYYKF [K2N] | 1.92 |
| NPLLLSIIILLELAILGGLVYYKF [K2P] | 2.43 |
| NQLLLSIIILLELAILGGLVYYKF [K2Q] | 4.47 |
| NRLLLSIIILLELAILGGLVYYKF [K2R] | 2.99 |
| NSLLLSIIILLELAILGGLVYYKF [K2S] | 2.46 |
| NTLLLSIIILLELAILGGLVYYKF [K2T] | 2.66 |
| NVLLLSIIILLELAILGGLVYYKF [K2V] | 3.38 |
| NWLLLSIIILLELAILGGLVYYKF [K2W] | 2.8 |
| NYLLLSIIILLELAILGGLVYYKF [K2Y] | 3.38 |
| NKALLSIIILLELAILGGLVYYKF [L3A] | 2.92 |

| Variant | protein stability index |
| --- | --- |
| NKCLLSIIILLELAILGGLVYYKF [L3C] | 2.54 |
| NKDLLSIIILLELAILGGLVYYKF [L3D] | 3.73 |
| NKELLSIIILLELAILGGLVYYKF [L3E] | 2.84 |
| NKGLLSIIILLELAILGGLVYYKF [L3G] | 2.83 |
| NKHLLSIIILLELAILGGLVYYKF [L3H] | 3.76 |
| NKILLSIIILLELAILGGLVYYKF [L3I] | 2.78 |
| NKKLLSIIILLELAILGGLVYYKF [L3K] | 1.85 |
| NKMLLSIIILLELAILGGLVYYKF [L3M] | 2.52 |
| NKNLLSIIILLELAILGGLVYYKF [L3N] | 3.2 |
| NKPLLSIIILLELAILGGLVYYKF [L3P] | 3.24 |
| NKQLLSIIILLELAILGGLVYYKF [L3Q] | 2.99 |
| NKRLLSIIILLELAILGGLVYYKF [L3R] | 3.98 |
| NKSLLSIIILLELAILGGLVYYKF [L3S] | 1.78 |
| NKTLLSIIILLELAILGGLVYYKF [L3T] | 2.98 |
| NKVLLSIIILLELAILGGLVYYKF [L3V] | 3.79 |
| NKWLLSIIILLELAILGGLVYYKF [L3W] | 2.79 |
| NKYLLSIIILLELAILGGLVYYKF [L3Y] | 3.55 |
| NKLALSIIILLELAILGGLVYYKF [L4A] | 3.17 |
| NKLCLSIIILLELAILGGLVYYKF [L4C] | 2.35 |
| NKLDLSIIILLELAILGGLVYYKF [L4D] | 3.75 |
| NKLELSIIILLELAILGGLVYYKF [L4E] | 2.47 |
| NKLFLSIIILLELAILGGLVYYKF [L4F] | 3.51 |
| NKLGLSIIILLELAILGGLVYYKF [L4G] | 2.29 |
| NKLHLSIIILLELAILGGLVYYKF [L4H] | 3.22 |

| Variant | protein stability index |
| --- | --- |
| NKLILSIIILLELAILGGLVYYKF [L4I] | 2.94 |
| NKLKLSIIILLELAILGGLVYYKF [L4K] | 2.39 |
| NKLMLSIIILLELAILGGLVYYKF [L4M] | 1.8 |
| NKLNLSIIILLELAILGGLVYYKF [L4N] | 2.28 |
| NKLQLSIIILLELAILGGLVYYKF [L4Q] | 3.91 |
| NKLSLSIIILLELAILGGLVYYKF [L4S] | 2.38 |
| NKLTLSIIILLELAILGGLVYYKF [L4T] | 1.51 |
| NKLVLSIIILLELAILGGLVYYKF [L4V] | 2.82 |
| NKLWLSIIILLELAILGGLVYYKF [L4W] | 2.25 |
| NKLYLSIIILLELAILGGLVYYKF [L4Y] | 2.34 |
| NKLLASIIILLELAILGGLVYYKF [L5A] | 2.22 |
| NKLLCSIIILLELAILGGLVYYKF [L5C] | 2.61 |
| NKLLDSIIILLELAILGGLVYYKF [L5D] | 2.64 |
| NKLLESIIILLELAILGGLVYYKF [L5E] | 4.19 |
| NKLLFSIIILLELAILGGLVYYKF [L5F] | 2.55 |
| NKLLHSIIILLELAILGGLVYYKF [L5H] | 3.13 |
| NKLLISIIILLELAILGGLVYYKF [L5I] | 3.01 |
| NKLLKSIIILLELAILGGLVYYKF [L5K] | 2.14 |
| NKLLNSIIILLELAILGGLVYYKF [L5N] | 3.71 |
| NKLLPSIIILLELAILGGLVYYKF [L5P] | 2.39 |
| NKLLQSIIILLELAILGGLVYYKF [L5Q] | 4.28 |
| NKLLRSIIILLELAILGGLVYYKF [L5R] | 1.8 |
| NKLLTSIIILLELAILGGLVYYKF [L5T] | 3.88 |
| NKLLVSIIILLELAILGGLVYYKF [L5V] | 2.08 |

| Variant | protein stability index |
| --- | --- |
| NKLLWSIIILLELAILGGLVYYKF [L5W] | 1.86 |
| NKLLYSIIILLELAILGGLVYYKF [L5Y] | 3.05 |
| NKLLLAIIILLELAILGGLVYYKF [S6A] | 3.54 |
| NKLLLCIIILLELAILGGLVYYKF [S6C] | 3.11 |
| NKLLLDIIILLELAILGGLVYYKF [S6D] | 2.42 |
| NKLLLEIIILLELAILGGLVYYKF [S6E] | 3.51 |
| NKLLLFIIILLELAILGGLVYYKF [S6F] | 2.67 |
| NKLLLGIIILLELAILGGLVYYKF [S6G] | 1.88 |
| NKLLLHIIILLELAILGGLVYYKF [S6H] | 2.51 |
| NKLLLIIIILLELAILGGLVYYKF [S6I] | 1.85 |
| NKLLLKIIILLELAILGGLVYYKF [S6K] | 2.63 |
| NKLLLLIIILLELAILGGLVYYKF [S6L] | 2.02 |
| NKLLLMIIILLELAILGGLVYYKF [S6M] | 2.86 |
| NKLLLNIIILLELAILGGLVYYKF [S6N] | 2.47 |
| NKLLLPIIILLELAILGGLVYYKF [S6P] | 3.12 |
| NKLLLQIIILLELAILGGLVYYKF [S6Q] | 3.32 |
| NKLLLRIIILLELAILGGLVYYKF [S6R] | 3.55 |
| NKLLLTIIILLELAILGGLVYYKF [S6T] | 3.52 |
| NKLLLVIIILLELAILGGLVYYKF [S6V] | 2.5 |
| NKLLLWIIILLELAILGGLVYYKF [S6W] | 2.11 |
| NKLLLYIIILLELAILGGLVYYKF [S6Y] | 2.76 |
| NKLLLSAIILLELAILGGLVYYKF [I7A] | 2.32 |

— the supplement of paper PMC10567573
